The test has as its target Mouse Fc (mFc) tagged mink ACE2 (mink (Neovison vison)). The test can be described thus: SPR.

Take “SARS-CoV-2 WT RBD (from UniProt P0DTC2 319-541) (domain or fragment)”: the Kd turned out to be 8.16 µM.

For the origin of these results see PMC8528823.
